± gives the standard deviation of the averaged measurements.
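Also: PSI is a weighted mean of sequencing reads over stability bins, variants kept only with over 10 reads, mCherry proximal and sfGFP distal, peptide attached via GGGS linker.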

The test system of the data set is Saccharomyces cerevisiae. In words: protein stability index of tFT-peptide fusion (C-terminal peptide) (PSI (0-1 scale)); higher = more stable (slower turnover). As to conditions: genetic background: wild type; temperature: 30 C. The method, then:
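Multiplexed protein stability (MPS) profiling in S. cerevisiae. Random 12-aa peptides (tFT-X12 library) are fused to the C-terminus of a sfGFP-mCherry tandem fluorescent timer, after mCherry and a GGGS linker. Cells are FACS-sorted into 8 mCherry/sfGFP bins and deep-sequenced. The protein stability index (PSI) is the read-weighted bin average, scaled from 0 (unstable) to 1 (stable). Only peptides with >10 reads are reported; cells were grown at 30 °C in SC-His with glucose.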
Take GQQLSLRGVVHW: the protein stability index stood at 0.844 ± 0.2.

For the sequence GQSQSGIFRTIF, the protein stability index amounted to 0.72 ± 0.024.

GQSVYRRWGCLK registered a protein stability index of 0.68 ± 0.01. Under GQVATAGDIRVR stands 0.69065 ± 0.00026; under GQYEPEWKRLYC, 0.64 ± 0.011.

GRADWERGMGLV came in with a protein stability index of 0.664 ± 0.021.

Consider GRAGEKRGGRRL, for which the protein stability index stood at 0.66 ± 0.013. As to GRANLAPVPPPR, the protein stability index amounted to 0.685 ± 0.013. GRASAGVLLCDG displayed a protein stability index of 0.659 ± 0.028. Consider GRCQSPRASPSG, for which the protein stability index worked out at 0.584 ± 0.013.

With GRDTVARSEGDR, the protein stability index turned out to be 0.712 ± 0.037. GRERASHRGPRN had a protein stability index of 0.648 ± 0.0066.

GRFGGLLRKVLG: the protein stability index came out at 0.678 ± 0.15. In the case of GRFGIGLYLCFL, the protein stability index was determined as 0.597 ± 0.094. GRGGAGFRGGIE had a protein stability index of 0.6707 ± 0.0044. In the case of GRGRVGGGGVAV, the protein stability index was 0.682 ± 0.042. The result for GRGTGGKGRRGS reads 0.693 ± 0.015; that for GRGVFPRRPYWV, 0.724 ± 0.0086. As for GRGVGWRACGVV, the protein stability index was determined as 0.685 ± 0.018. GRIAGGGGGWRW returned a protein stability index of 0.648 ± 0.064. Turning to GRILGEGWVCVV, the protein stability index stood at 0.663 ± 0.087. As for GRKAEVRVLHFR, the protein stability index worked out at 0.6447 ± 0.0055.

Regarding GRKKLQKKIEEQ, the protein stability index came to 0.6783 ± 0.0032. GRLGRHFSVKFL gave a protein stability index of 0.6584 ± 0.0052.

With GRLGRMWRCDPR, the protein stability index amounted to 0.658 ± 0.032. Sequence GRLWVGGSVGGV displayed a protein stability index of 0.669 ± 0.012. Sequence GRPRERWGVGVV showed a protein stability index of 0.6865 ± 0.0023. Take GRQLSTSRLRSS: the protein stability index stood at 0.674 ± 0.025. Under GRRAWWQQPDDS stands 0.774 ± 0.099.

Regarding GRRDARTEDVRE, the protein stability index was determined as 0.688 ± 0.0049. The sequence GRRFWFSNHYNC returned a protein stability index of 0.628 ± 0.091. GRRKKKNRDKMK registered a protein stability index of 0.6872 ± 0.004. The result for GRRLSDTSIFSS reads 0.679 ± 0.087; that for GRRRCGGGGEVC, 0.66 ± 0.064. Sequence GRRRVSTAPRTT registered a protein stability index of 0.739 ± 0.056.

GRSFRQWRDSGS: the protein stability index worked out at 0.718 ± 0.066. Under GRSGACGWVGFG stands 0.7238 ± 0.0013. Sequence GRSGGEGGGEEE showed a protein stability index of 0.681 ± 0.029. GRSHIQPCQDII gave a protein stability index of 0.75 ± 0.078. In turn, GRSIKGLLYQSL came in with a protein stability index of 0.681 ± 0.025. GRSKKGTISMNS came in with a protein stability index of 0.67 ± 0.0077. Regarding GRTAEKGHPPRG, the protein stability index was found to be 0.7 ± 0.073. The sequence GRTGRSVGTGVR had a protein stability index of 0.662 ± 0.025. For GRTSTVRSLVFT, the protein stability index amounted to 0.666 ± 0.026.

GRTYWDCYFPRP: the protein stability index stood at 0.778 ± 0.061. For the sequence GRVRGRGEGPVA, the protein stability index stood at 0.675 ± 0.049. GRWFGGRGVGEG yielded a protein stability index of 0.635 ± 0.013. As to GRWGVMKGEEDV, the protein stability index is 0.737 ± 0.032. Sequence GRWSDSSVVTLG returned a protein stability index of 0.679 ± 0.018.

GRYDARNYIRGK: the protein stability index was found to be 0.745 ± 0.14. GRYGPTIPRGEP showed a protein stability index of 0.696 ± 0.017. Sequence GSAGGGLLCGCP displayed a protein stability index of 0.657 ± 0.008. As for GSAVLFEFTLKM, the protein stability index was 0.651 ± 0.053. The result for GSDIIGSRDGWL reads 0.67 ± 0.039. The result for GSFGFGVTVVFW reads 0.5563 ± 0.0021; that for GSGAFSLVSSYF, 0.656 ± 0.017; that for GSGALGAGRASR, 0.723 ± 0.017.

GSGRVVGSWSVL displayed a protein stability index of 0.661 ± 0.045. GSGVFEASAWGA displayed a protein stability index of 0.679 ± 0.0069. Turning to GSGVSDWRCFEG, the protein stability index amounted to 0.627 ± 0.071. For the sequence GSGVVVEGFLPD, the protein stability index is 0.65 ± 0.021. GSGWRLLLGLVR came in with a protein stability index of 0.5731 ± 0.0022. Turning to GSIWVVGGGQGV, the protein stability index worked out at 0.731 ± 0.048. GSLWGVFFRGLL: the protein stability index was determined as 0.647 ± 0.037.

The values above are taken from the supplement of paper PMC10724198.
